Experimental data: US20100021479A1 (Bristol-Myers Squibb, published 2010)

Tests used:
human CD30 [1] = biological target: T1, human CD30 (human, UniProt P28908 19-595); assay: cell-based or functional assay
T1 sequence (looked up): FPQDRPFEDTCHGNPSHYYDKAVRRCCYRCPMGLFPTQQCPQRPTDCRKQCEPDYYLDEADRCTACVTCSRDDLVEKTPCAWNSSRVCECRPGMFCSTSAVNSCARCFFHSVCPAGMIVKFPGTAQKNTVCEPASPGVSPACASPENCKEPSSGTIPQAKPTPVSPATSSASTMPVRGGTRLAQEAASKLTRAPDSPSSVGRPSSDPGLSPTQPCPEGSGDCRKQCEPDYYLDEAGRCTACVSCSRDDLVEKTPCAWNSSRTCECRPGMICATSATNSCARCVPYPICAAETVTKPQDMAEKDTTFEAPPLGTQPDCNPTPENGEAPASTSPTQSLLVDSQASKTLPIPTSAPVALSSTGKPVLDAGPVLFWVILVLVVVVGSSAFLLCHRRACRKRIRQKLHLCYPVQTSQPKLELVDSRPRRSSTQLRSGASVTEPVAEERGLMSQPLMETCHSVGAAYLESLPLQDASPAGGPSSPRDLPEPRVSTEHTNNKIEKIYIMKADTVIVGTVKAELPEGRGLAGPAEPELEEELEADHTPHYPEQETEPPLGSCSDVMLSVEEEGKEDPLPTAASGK

human CD30 [2] = biological target: T1, human CD30; assay: Scatchard analysis, 125I-labelled antibody on CD30 positive L540 cells, 4 °C
Description: (§1) Human or cynomolgus peripheral blood cells were stimulated with 2 μg/ml PHA, 10 μg/ml Con A, and 50 U/ml rIL-2 and cultured in RPMI1640 media containing 10% fetal bovine serum (FBS) at 1×10⁶ cells/ml density for 3 days. On the day of the study, the cells were washed and adjusted to 2×10⁷ cells/m in binding buffer (RPMI1640+10% FBS). As a control, CD30 positive L540 cells (adjusted to 4-8×10⁶ cells/ml) were used in these studies since they express high levels of the antigen. The cells were placed on ice until the initiation of the experiment. Millipore glass fiber filter plates (MAFBN0B50) were coated with 1% nonfat dry milk in water and stored a 4° C. overnight. The plates were washed three times with 0.2 ml of binding buffer. Fifty microliters of buffer alone was added to the maximum binding wells (total binding). Twenty-five microliters of buffer alone was added to the control wells. Varying concentration of ¹²⁵I-anti-CD30 antibody was added to all wells in a volume of 25 μL. Varying concentrations of unlabeled antibody at 300-400 fold excess were added in a volume of 25 μl to control wells (non-specific binding) and 25 μl of CD30 positive L540 cells or stimulated human or cynomolgus peripheral blood cells in binding buffer were added to all wells. The plates were incubated for 2 hours at 200 RPM on a shaker at 4° C. […] The filters were removed and counted in a gamma counter. […]

human CD30 [3] = biological target: T1, human CD30; assay: Scatchard analysis, 125I-labelled antibody on PHA/Con A/rIL-2-activated human peripheral blood cells, 4 °C
Description: as §1

[4] = biological target: T2, cynomolgus CD30 on PHA, Con A and rIL-2 activated cynomolgus peripheral blood mononuclear cells (cynomolgus, UniProt A0A2K5VW07 29-603); assay: Scatchard analysis, 125I-labelled antibody on PHA/Con A/rIL-2-activated cynomolgus peripheral blood mononuclear cells, 4 °C
T2 construct: whole, on cells
T2 sequence: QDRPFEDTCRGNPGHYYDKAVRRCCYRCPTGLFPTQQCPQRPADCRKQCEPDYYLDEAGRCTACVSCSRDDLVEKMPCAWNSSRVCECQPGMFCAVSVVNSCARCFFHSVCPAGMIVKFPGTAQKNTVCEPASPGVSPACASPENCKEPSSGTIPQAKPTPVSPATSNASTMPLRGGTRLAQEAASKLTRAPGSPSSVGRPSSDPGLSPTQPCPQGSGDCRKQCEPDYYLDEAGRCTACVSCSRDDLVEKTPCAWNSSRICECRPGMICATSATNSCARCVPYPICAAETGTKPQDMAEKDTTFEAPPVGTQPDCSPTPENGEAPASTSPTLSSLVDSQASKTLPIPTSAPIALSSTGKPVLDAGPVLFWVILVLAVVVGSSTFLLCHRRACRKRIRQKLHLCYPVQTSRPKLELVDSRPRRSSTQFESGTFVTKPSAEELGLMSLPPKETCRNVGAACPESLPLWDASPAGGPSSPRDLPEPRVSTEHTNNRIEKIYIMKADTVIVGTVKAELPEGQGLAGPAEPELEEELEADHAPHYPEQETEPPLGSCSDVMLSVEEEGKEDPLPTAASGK
Description: as §1

B1: fucosylated 5F11 anti-CD30 fully human monoclonal antibody (expressed in CHO DG44 cells) (antibody, IgG1, V domains shown)
VH: QVQLQQWGAGLLKPSETLSLTCAVYGGSFSAYYWSWIRQPPGKGLEWIGDINHGGGTNYNPSLKSRVTISVDTSKNQFSLKLNSVTAADTAVYYCASLTAYWGQGSLVTVSS
VL: DIQMTQSPTSLSASVGDRVTITCRASQGISSWLTWYQQKPEKAPKSLIYAASSLQSGVPSRFSGSGSGTDFTLTISSLQPEDFATYYCQQYDSYPITFGQGTRLEIK
notes: It was made in CHO DG44 (FUT8+/+) cells, so the carbohydrate contains fucose; also called fuc-5F11; Anti-CD30 + fucose
- EC50 of ADCC, Karpas cells (human CD30 [1]): 0.25 µg/mL
- EC50 of ADCC, L428 cells (human CD30 [1]): 0.1 µg/mL
- EC50 of ADCC, L540 cells (human CD30 [1]): 0.042 µg/mL
- EC50 of ADCC, L1236 cells (human CD30 [1]): 1.22 µg/mL
- Kd (human CD30 [2]): 1.37 nM
- Kd (human CD30 [3]): 1.08 nM
- Kd [4]: 0.47 nM

B2: defucosylated 5F11 anti-CD30 fully human monoclonal antibody (expressed in FUT8-/- Ms704 cells) (antibody, V domains shown)
VH: B1 VH
VL: B1 VL
- % Lysis ratio fucose-:fucose+, ADCC, Karpas cells (human CD30 [1]): 2.63 fold
- % Lysis ratio fucose-:fucose+, ADCC, L428 cells (human CD30 [1]): 2.15 fold
- % Lysis ratio fucose-:fucose+, ADCC, L540 cells (human CD30 [1]): 1.61 fold
- % Lysis ratio fucose-:fucose+, ADCC, L1236 cells (human CD30 [1]): 3.25 fold
- EC50 ratio fucose+:fucose-, ADCC, Karpas cells (human CD30 [1]): 7.8 fold
- EC50 ratio fucose+:fucose-, ADCC, L428 cells (human CD30 [1]): 11.1 fold
- EC50 ratio fucose+:fucose-, ADCC, L540 cells (human CD30 [1]): 4.7 fold
- EC50 ratio fucose+:fucose-, ADCC, L1236 cells (human CD30 [1]): 27.1 fold
